Assay results from article PMC4320835.

Biological target: wild-type H3 A/Perth/16/2009 recombinant hemagglutinin (rHA) (influenza A virus, H3 A/Perth/16/2009)
Assay: cross-linking

“wild-type H3 A/Perth/16/2009 recombinant hemagglutinin (rHA) (natural protein)” was tested, and the percent cross-linked after 1 month at 25°C was 72%.
